Experimental data published in patent US20220242943A1.

Tests used:
human PDGF-BB (human) [1] = molecular target: human PDGF-BB (human) (UniProt P01127); experiment: blocking ELISA: 60 pM Biot-PDGF-BB on 1 ug/ml hPDGFRb-mmH; IC50 cell NB (Non-Blocker)
human PDGF-AB (human) [2] = molecular target: human PDGF-AB (human) (UniProt P04085); experiment: blocking ELISA: 100 pM Biot-PDGF-AB on 1 ug/ml hPDGFRb-mmH; IC50 cell NB (Non-Blocker)
[3] = molecular target: human PDGFRβ on HEK293/SRE-luc/hPDGFRβ cells (human) (UniProt P09619); experiment: cell-based or functional assay
[4] = molecular target: Cynomolgus monkey PDGF-BB (cynomolgus monkey (Macaca fascicularis)); experiment: SPR 25C, mAb captured on anti-hFc; analyte Monkey PDGF-BB homodimer (Kingfisher)
human PDGF-BB (human) [5] = molecular target: human PDGF-BB (human) (UniProt P01127); experiment: SPR 25C, mAb captured on anti-hFc; analyte Human PDGF-BB homodimer (R&D)
human PDGF-AB (human) [6] = molecular target: human PDGF-AB (human) (UniProt P04085); experiment: cell-based or functional assay
human PDGF-BB (human) [7] = molecular target: human PDGF-BB (human) (UniProt P01127); experiment: cell-based or functional assay

Chain of human PDGFRβ on HEK293/SRE-luc/hPDGFRβ cells (human) (P09619 33-1106): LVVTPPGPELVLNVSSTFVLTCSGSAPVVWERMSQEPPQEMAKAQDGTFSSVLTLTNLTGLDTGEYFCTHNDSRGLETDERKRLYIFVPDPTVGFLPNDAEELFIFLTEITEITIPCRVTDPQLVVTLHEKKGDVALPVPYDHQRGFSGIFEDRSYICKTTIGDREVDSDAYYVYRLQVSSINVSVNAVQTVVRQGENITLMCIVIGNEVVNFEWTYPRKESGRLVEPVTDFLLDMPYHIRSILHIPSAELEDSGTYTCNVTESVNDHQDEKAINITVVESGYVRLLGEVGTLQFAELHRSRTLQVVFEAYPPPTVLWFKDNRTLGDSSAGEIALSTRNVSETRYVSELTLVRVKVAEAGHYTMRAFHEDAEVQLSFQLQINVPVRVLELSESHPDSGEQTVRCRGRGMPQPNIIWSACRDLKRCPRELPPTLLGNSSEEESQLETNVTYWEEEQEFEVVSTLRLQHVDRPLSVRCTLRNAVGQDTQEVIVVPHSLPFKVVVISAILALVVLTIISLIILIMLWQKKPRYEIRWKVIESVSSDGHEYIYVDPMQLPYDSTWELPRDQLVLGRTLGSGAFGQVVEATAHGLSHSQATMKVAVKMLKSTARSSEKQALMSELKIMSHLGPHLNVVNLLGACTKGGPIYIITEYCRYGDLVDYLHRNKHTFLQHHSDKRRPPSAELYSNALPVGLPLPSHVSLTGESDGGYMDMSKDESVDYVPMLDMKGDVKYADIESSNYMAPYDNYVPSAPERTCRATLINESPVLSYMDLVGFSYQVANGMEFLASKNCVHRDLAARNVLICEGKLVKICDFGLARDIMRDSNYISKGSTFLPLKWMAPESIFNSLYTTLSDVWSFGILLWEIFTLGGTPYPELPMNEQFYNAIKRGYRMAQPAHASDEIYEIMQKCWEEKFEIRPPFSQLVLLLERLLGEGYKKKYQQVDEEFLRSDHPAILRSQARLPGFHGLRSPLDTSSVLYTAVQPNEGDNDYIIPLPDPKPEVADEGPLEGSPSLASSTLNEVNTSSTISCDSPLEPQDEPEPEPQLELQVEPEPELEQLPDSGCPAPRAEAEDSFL
Chain of Cynomolgus monkey PDGF-BB (cynomolgus monkey (Macaca fascicularis)) (chain, as listed by the source): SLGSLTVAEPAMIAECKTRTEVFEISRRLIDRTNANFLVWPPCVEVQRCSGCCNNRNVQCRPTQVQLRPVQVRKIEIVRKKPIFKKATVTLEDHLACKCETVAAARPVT

| % blocking at 100 nM Ab (human PDGF-BB (human) [1]) | % blocking at 100 nM Ab (human PDGF-AB (human) [2]) | EC50 of ligand, SRE-luciferase in HEK293/SRE-luc/hPDGFRβ cells [3] | 30nM mfPDGF-BB (KingFisher) Bound (RU) [4] | 30nM hPDGF-BB (R&D) Bound (RU) (human PDGF-BB (human) [5]) | A647 Intensity, internalization in NHLF, pre-blocking Ab: NA (human PDGF-AB (human) [6]) | A647 Intensity, internalization in PASMC, pre-blocking Ab: NA (human PDGF-AB (human) [6]) | Fold Change vs REGN1945, internalization in NHLF, pre-blocking Ab: NA (human PDGF-AB (human) [6]) | Fold Change vs REGN1945, internalization in PASMC, pre-blocking Ab: NA (human PDGF-AB (human) [6]) | A647 Intensity, internalization in NHLF, pre-blocking Ab: NA (human PDGF-BB (human) [7]) | A647 Intensity, internalization in PASMC, pre-blocking Ab: NA (human PDGF-BB (human) [7]) | EC50 of subsequent PDGF-BB calcium flux in PASMC after 3 hr pre-treatment with antibody-PDGFBB (10:1 nM) (human PDGF-BB (human) [7]) | Fold Change vs REGN1945, internalization in NHLF, pre-blocking Ab: NA (human PDGF-BB (human) [7]) | Fold Change vs REGN1945, internalization in PASMC, pre-blocking Ab: NA (human PDGF-BB (human) [7]) | Max-Min at 5 nM PDGF-BB (RFU), PASMC after 3 hr pre-treatment with antibody-PDGFBB (human PDGF-BB (human) [7]) | Max-Min at 5 nM PDGF-BB (RFU), PASMC after 24 hr pre-treatment with antibody-PDGFBB (human PDGF-BB (human) [7]) | Max-Min at 5 nM PDGF-BB (RFU), PASMC after 48 h pre-treatment with antibody-PDGFBB (human PDGF-BB (human) [7]) | Substance |
| --- | --- | --- | --- | --- | --- | --- | --- | --- | --- | --- | --- | --- | --- | --- | --- | --- | --- |
| -5% | 18% |  |  |  |  |  |  |  |  |  |  |  |  |  |  |  | isotype - mIgG (REGN 751) (antibody) |
|  |  | 8.6 nM |  |  |  |  |  |  |  |  |  |  |  |  |  |  | human PDGF-AB (from UniProt P04085 87-211) (ligand) |
| -6% | 21% |  | 6.8 RU | 6.7 RU | 624000 | 464000 | 1 fold | 1 fold | 573000 | 483000 | 0.6 nM | 1 fold | 1 fold | 3950 RFU | 1460 RFU | 492 RFU | REGN1945 (antibody) |
